Test results published in article PMC5430726.

Columns and labels:
[1] = biological target: Grb2 SH3C-SLP65 peptide binary complex (formed before Vav SH3N was added) (mouse) (UniProt Q60631); experiment: ITC; Vav SH3N titrated into the preformed Grb2 SH3C-SLP65 peptide binary complex (gives Complex 2, trimeric); 20 mM sodium phosphate, 100 mM NaCl, pH 6.0, 25 °C; Kd called approximate
[2] = biological target: Grb2 C-terminal SH3 domain (SH3C), residues 155-217 (mouse) (UniProt Q60631); experiment: ITC; free Grb2 SH3C in the cell (20 uM for the peptide, 40 uM for Vav) titrated with 280 uM SLP65 peptide or 600 uM Vav SH3N; 20 mM sodium phosphate, 100 mM NaCl, pH 6.0, 25 °C; one-site binding model
Chain of Grb2 C-terminal SH3 domain (SH3C), residues 155-217 (mouse) (Q60631 155-217): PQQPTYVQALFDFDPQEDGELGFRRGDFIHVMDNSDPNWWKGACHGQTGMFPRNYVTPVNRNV

Chain of Grb2 SH3C-SLP65 peptide binary complex (formed before Vav SH3N was added) (mouse) (Q60631 155-217, one chain of several): as the sequence (Q60631 155-217) above

- Kd [1]: 11.5 µM
- dH [1]: -0.54 kcal/mol
- stoichiometry N [1]: 1.1
- Kd [2]: 4.5 µM
- dH [2]: -3.15 kcal/mol
- stoichiometry N [2]: 0.91
Substance: Vav N-terminal SH3 domain (SH3N), residues 583-660 (from UniProt Q8VDU4 583-660) (domain or fragment)
